Experimental data from publication PMC9302676.
Changes are numbered by the printed parent chain. Numbers in names are those of the source.

B1: P450 BM3 (CYP102A1) (Priestia megaterium NBRC 15308 = ATCC 14581) (protein)
chain: MTIKEMPQPKTFGELKNLPLLNTDKPVQALMKIADELGEIFKFEAPGRVTRYLSSQRLIKEACDESRFDKNLSQALKFVRDFAGDGLFTSWTHEKNWKKAHNILLPSFSQQAMKGYHAMMVDIAVQLVQKWERLNADEHIEVPEDMTRLTLDTIGLCGFNYRFNSFYRDQPHPFITSMVRALDEAMNKLQRANPDDPAYDENKRQFQEDIKVMNDLVDKIIADRKASGEQSDDLLTHMLNGKDPETGEPLDDENIRYQIITFLIAGHETTSGLLSFALYFLVKNPHVLQKAAEEAARVLVDPVPSYKQVKQLKYVGMVLNEALRLWPTAPAFSLYAKEDTVLGGEYPLEKGDELMVLIPQLHRDKTIWGDDVEEFRPERFENPSAIPQHAFKPFGNGQRACIGQQFALHEATLVLGMMLKHFDFEDHTNYELDIKETLTLKPEGFVVKAKSKKIPLGGIPSPSTEQSAKKVRKKAENAHNTPLLVLYGSNMGTAEGTARDLADIAMSKGFAPQVATLDSHAGNLPREGAVLIVTASYNGHPPDNAKQFVDWLDQASADEVKGVRYSVFGCGDKNWATTYQKVPAFIDETLAAKGAENIADRGEADASDDFEGTYEEWREHMWSDVAAYFNLDIENSEDNKSTLSLQFVDSAADMPLAKMHGAFSTNVVASKELQQPGSARSTRHLEIELPKEASYQEGDHLGVIPRNYEGIVNRVTARFGLDASQQIRLEAEEEKLAHLPLAKTVSVEELLQYVELQDPVTRTQLRAMAAKTVCPPHKVELEALLEKQAYKEQVLAKRLTMLELLEKYPACEMKFSEFIALLPSIRPRYYSISSSPRVDEKQASITVSVVSGEAWSGYGEYKGIASNYLAELQEGDTITCFISTPQSEFTLPKDPETPLIMVGPGTGVAPFRGFVQARKQLKEQGQSLGEAHLYFGCRSPHEDYLYQEELENAQSEGIITLHTAFSRMPNQPKTYVQHVMEQDGKKLIELLDQGAHFYICGDGSQMAPAVEATLMKSYADVHQVSEADARLWLQQLEEKGRYAKDVWAG
B2: P450 BM3 (CYP102A1) (Priestia megaterium NBRC 15308 = ATCC 14581; N320L/T412V) (protein)
chain: B1 chain with N320L, T412V
B3: P450 BM3 (CYP102A1) (Priestia megaterium NBRC 15308 = ATCC 14581; N320L/T437A) (protein)
chain: B1 chain with N320L, T437A
B4: P450 BM3 (CYP102A1) (Priestia megaterium NBRC 15308 = ATCC 14581; T412V/T437A) (protein)
chain: B1 chain with T412V, T437A
B5: P450 BM3 (CYP102A1) (Priestia megaterium NBRC 15308 = ATCC 14581; N320L/T412V/T437A) (protein)
chain: B1 chain with N320L, T412V, T437A

substrate: CC1=CC(=O)CC(C)(C)C1; experiment: purified protein; conditions: 1 μM enzyme, 1 mM NADPH, KPi 50 mM pH 7.4, 2-50 mM substrate, 30.0 °C

Protein	Km
B1	10.95 ± 0.80 mM
B2	17.67 ± 0.46 mM
B3	10.09 ± 0.18 mM
B4	11.39 ± 0.84 mM
B5	8.29 ± 0.77 mM
